# In patent US20200231652A1 (NATIONAL RESEARCH COUNCIL OF CANADA, published 2020):
# Target: RSV-F (UniProt P03420 26-529)
# Test: SPR, similar method as for Cetuximab
# Sequence of RSV-F (P03420 26-529): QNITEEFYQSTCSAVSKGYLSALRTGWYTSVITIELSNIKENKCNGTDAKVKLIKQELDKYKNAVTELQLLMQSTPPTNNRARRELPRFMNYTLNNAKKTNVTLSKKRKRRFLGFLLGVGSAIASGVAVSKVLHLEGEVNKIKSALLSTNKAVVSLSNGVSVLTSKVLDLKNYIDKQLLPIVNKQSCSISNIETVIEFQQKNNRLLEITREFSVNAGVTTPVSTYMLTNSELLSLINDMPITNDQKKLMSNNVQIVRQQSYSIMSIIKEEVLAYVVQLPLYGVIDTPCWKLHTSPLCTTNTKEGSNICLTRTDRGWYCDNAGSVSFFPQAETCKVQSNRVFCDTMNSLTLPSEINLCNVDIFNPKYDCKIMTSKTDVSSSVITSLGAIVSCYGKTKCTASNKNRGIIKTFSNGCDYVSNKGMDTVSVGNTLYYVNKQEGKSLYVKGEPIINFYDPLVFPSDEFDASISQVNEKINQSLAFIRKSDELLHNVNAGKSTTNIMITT
binder,measurement,value
"Synagis (antibody, human IgG1, kappa, V domains shown) VH: QVTLRESGPALVKPTQTLTLTCTFSGFSLSTSGMSVGWIRQPPGKALEWLADIWWDDKKDYNPSLKSRLTISKDTSKNQVVLKVTNMDPADTATYYCARSMITNWYFDVWGAGTTVTVSS VL: DIQMTQSPSTLSASVGDRVTITCKCQLSVGYMHWYQQKPGKAPKLLIYDTSKLASGVPSRFSGSGSGTEFTLTISSLQPDDFATYYCFQGSGYPFTFGGGTKLEIKR",Kd,6.6 nM
